T1: FcγRIIb (human, UniProt P31994 43-217, limits assumed)
T1 construct: also called CD32b
T1 sequence (looked up): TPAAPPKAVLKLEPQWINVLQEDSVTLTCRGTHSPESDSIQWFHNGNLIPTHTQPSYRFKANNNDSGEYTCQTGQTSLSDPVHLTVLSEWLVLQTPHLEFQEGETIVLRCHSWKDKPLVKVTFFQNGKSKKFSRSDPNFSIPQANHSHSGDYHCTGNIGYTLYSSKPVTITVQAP

T2: HM1.24 antigen on a Biacore chip (UniProt Q10589 49-161, limits assumed)
T2 construct: also called HM1.24 chip
T2 sequence (looked up): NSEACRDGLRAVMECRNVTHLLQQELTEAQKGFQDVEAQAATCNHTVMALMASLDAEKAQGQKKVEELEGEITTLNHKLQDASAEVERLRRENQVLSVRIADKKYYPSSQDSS

B1: 9547 αCD19×αFcγRIIb mAb-Fv (bispecific antibody, IgG1)
heavy 1: EVQLVESGGGLVKPGGSLKLSCAASGYTFTSYVMHWVRQAPGKGLEWIGYINPYNDGTKYNEKFQGRVTISSDKSISTAYMELSSLRSEDTAMYYCARGTYYYGTRVFDYWGQGTLVTVSSASTKGPSVFPLAPSSKSTSGGTAALGCLVKDYFPEPVTVSWNSGALTSGVHTFPAVLQSSGLYSLSSVVTVPSSSLGTQTYICNVNHKPSNTKVDKKVEPKSCDKTHTCPPCPAPELLRGPSVFLFPPKPKDTLMISRTPEVTCVVVDVSHEDPEVKFNWYVDGVEVHNAKTKPREEQYNSTYRVVSVLTVLHQDWLNGKEYKCKVSNKARPAPIEKTISKAKGQPREPQVTTLPPSREEMTKNQVSLTCLVKGFYPSDIAVEWESNGQPENNYKTFPPVLDSDGSFFLYSKLTVDKSRWQQGNVFSCSVMHEALHNHYTQKSLSLSPGKGGGGSGGGGSGGGGSGGGGSGGGGSGGGGQVQLQQPVTELVRPGASVMLSCKASDYPFTNYWIHWVKQRPGQGLEWIGVIDPSDTYPNYNKKFKGKATLTVVVSSSTAYMQLSSLTSDDSAVYYCARNGDSDYYSGMDYWGQGTSVTVSSGSHHHHHH
heavy 2: EVQLVESGGGLVKPGGSLKLSCAASGYTFTSYVMHWVRQAPGKGLEWIGYINPYNDGTKYNEKFQGRVTISSDKSISTAYMELSSLRSEDTAMYYCARGTYYYGTRVFDYWGQGTLVTVSSASTKGPSVFPLAPSSKSTSGGTAALGCLVKDYFPEPVTVSWNSGALTSGVHTFPAVLQSSGLYSLSSVVTVPSSSLGTQTYICNVNHKPSNTKVDKKVEPKSCDKTHTCPPCPAPELLRGPSVFLFPPKPKDTLMISRTPEVTCVVVDVSHEDPEVKFNWYVDGVEVHNAKTKPREEQYNSTYRVVSVLTVLHQDWLNGKEYKCKVSNKARPAPIEKTISKAKGQPREPQVYTLPPSREEMTKNQVHLTCLVKGFYPSDIAVEWESNGQPENNYKTTPPVLDSDGSFALYSKLTVDKSRWQQGNVFSCSVMHEALHNHYTQKSLSLSPGKGGGGSGGGGSGGGGSGGGGSGGGGSGGGGDILLTQSPAILSVSPGERVSFSCRTSQSIGTNIHWYQQRTNGFPRLLIKNVSESISGIPSRFSGSGSGTDFILSINSVESEDIADYYCQQSNTWPFTFGGGTKLEIKGSHHHHHH
light: DIVMTQSPATLSLSPGERATLSCRSSKSLQNVNGNTYLYWFQQKPGQSPQLLIYRMSNLNSGVPDRFSGSGSGTEFTLTISSLEPEDFAVYYCMQHLEYPITFGAGTKLEIKRTVAAPSVFIFPPSDEQLKSGTASVVCLLNNFYPREAKVQWKVDNALQSGNSQESVTEQDSKDSTYSLSSTLTLSKADYEKHKVYACEVTHQGLSSPVTKSFNRGEC
notes: mAb-Fv, IgG1 G236R/L328R, hetero-Fc TF-HA, Linker 3; also called 9547 mAb-Fv; copies: 1 + 1 + 2
B2: 9518 αHM1.24×αFcγRIIIa mAb-Fv (bispecific antibody, IgG1)
heavy 1: QVQLVQSGAEVKKPGASVKVSCKASGYTFTPYWMQWVRQAPGQGLEWMGSIFPGSGDTRYSQSFQGQVTISADKSISTAYMELSRLRSDDTAVYYCARGLRRGGYYFDYWGQGTLVTVSSASTKGPSVFPLAPSSKSTSGGTAALGCLVKDYFPEPVTVSWNSGALTSGVHTFPAVLQSSGLYSLSSVVTVPSSSLGTQTYICNVNHKPSNTKVDKKVEPKSCDKTHTCPPCPAPELLRGPSVFLFPPKPKDTLMISRTPEVTCVVVDVSHEDPEVKFNWYVDGVEVHNAKTKPREEQYNSTYRVVSVLTVLHQDWLNGKEYKCKVSNKARPAPIEKTISKAKGQPREPQVTTLPPSREEMTKNQVSLTCLVKGFYPSDIAVEWESNGQPENNYKTFPPVLDSDGSFFLYSKLTVDKSRWQQGNVFSCSVMHEALHNHYTQKSLSLSPGKSSDKTHTSPPSPGGGGSGGGGSGGGGSGGGGQVTLKESGPGILQPSQTLSLTCSFSGFSLRTSGMGVGWIRQPSGKGLEWLAHIWWDDDKRYNPALKSRLTISKDTSSNQVFLKIASVDTADTATYYCAQINPAWFAYWGQGTLVTVSASGHHHHHH
heavy 2: QVQLVQSGAEVKKPGASVKVSCKASGYTFTPYWMQWVRQAPGQGLEWMGSIFPGSGDTRYSQSFQGQVTISADKSISTAYMELSRLRSDDTAVYYCARGLRRGGYYFDYWGQGTLVTVSSASTKGPSVFPLAPSSKSTSGGTAALGCLVKDYFPEPVTVSWNSGALTSGVHTFPAVLQSSGLYSLSSVVTVPSSSLGTQTYICNVNHKPSNTKVDKKVEPKSCDKTHTCPPCPAPELLRGPSVFLFPPKPKDTLMISRTPEVTCVVVDVSHEDPEVKFNWYVDGVEVHNAKTKPREEQYNSTYRVVSVLTVLHQDWLNGKEYKCKVSNKARPAPIEKTISKAKGQPREPQVYTLPPSREEMTKNQVHLTCLVKGFYPSDIAVEWESNGQPENNYKTTPPVLDSDGSFALYSKLTVDKSRWQQGNVFSCSVMHEALHNHYTQKSLSLSPGKSSDKTHTSPPSPGGGGSGGGGSGGGGSGGGGDIVLTQSPASLAVSLGQRATISCKASQSVDFDGDSFMNWYQQKPGQPPKLLIYTTSNLESGIPARFSASGSGTDFTLNIHPVEEEDTATYYCQQSNEDPYTFGGGTKLELKSGDYKDDDDK
light: DIVMTQSPLSLPVTLGQPASISCKASQDVNTAVAWYLQKPGKSPKLLIYSASNRYTGVPDRITGSGSGTDFTLKISRVEAEDVGVYYCQQHYSTPFTFGSGTKLEIKRTVAAPSVFIFPPSDEQLKSGTASVVCLLNNFYPREAKVQWKVDNALQSGNSQESVTEQDSKDSTYSLSSTLTLSKADYEKHKVYACEVTHQGLSSPVTKSFNRGEC
notes: mAb-Fv, IgG1 G236R/L328R, hetero-Fc TF-HA, Linker 2; copies: 1 + 1 + 2

Columns and labels:
FcγRIIb [1] = target: T1, FcγRIIb; assay: SPR (Biacore), 9547 captured on protein A, receptor concentration series, 1:1 Langmuir global fit
Protocol: (§1) Binding measurements were performed using a Biacore® 3000 instrument (Biacore®). Antibodies were captured onto an immobilized Protein A (Pierce) CM5 biosensor chip (Biacore®), generated using a standard primary amine coupling protocol. All measurements were performed in HBS-EP (0.01 M HEPES pH 7.4, 0.15 M NaCl, 3 mM EDTA, 0.005% v/v surfactant P20), and glycine buffer (10 mM glycine-HCl, pH 1.5) was used for the Protein A surface regeneration. All antibodies (50 nM in HBS-EP) were immobilized on the Protein A surface. Fc receptors were injected over antibody bound surface, followed by a dissociation phase. After each cycle, the Protein A surface was regenerated by injecting glycine buffer (pH 1.5). Data were processed by zeroing time and response before the injection of receptor and by subtracting appropriate nonspecific signals (response of reference channel and injection of running buffer).

FcγRIIb [2] = target: T1, FcγRIIb; assay: SPR (Biacore); the reference value of native IgG1 (2.3 µM) is cited from the literature
[3] = target: T2, HM1.24 antigen on a Biacore chip; assay: SPR (Biacore), 100 nM mAb-Fv injected over a HM1.24 chip
FcγRIIIa, V158 isoform [4] = target: T3, FcγRIIIa, V158 isoform (human, UniProt P08637 17-208, limits assumed); assay: SPR (Biacore), 9518 captured (protein A by the text, HM1.24 by the legend of FIG. 16), receptor concentration series, 1:1 Langmuir global fit
T3 construct: no change against a named entry is printed; also called FcγRIIIa(158V); V158 FcγRIIIa
T3 sequence (P08637 17-208 F176V limits assumed): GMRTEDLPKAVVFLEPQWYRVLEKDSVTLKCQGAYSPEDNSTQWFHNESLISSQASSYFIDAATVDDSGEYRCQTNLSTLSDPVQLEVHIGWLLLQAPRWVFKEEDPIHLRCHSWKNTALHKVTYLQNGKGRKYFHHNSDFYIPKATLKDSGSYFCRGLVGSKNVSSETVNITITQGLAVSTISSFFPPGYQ
Protocol: as §1
Data were processed by zeroing time and response before the injection of receptor and by subtracting appropriate nonspecific signals. The equilibrium constant was calculated by global fitting of binding data with a 1:1 Langmuir binding model using BIAevaluation software.

FcγRIIIa, V158 isoform [5] = target: T3, FcγRIIIa, V158 isoform; assay: SPR (Biacore); the reference value of native IgG1 (280 nM) is cited from the literature
Protocol: Affinity of the mAb-Fv for FcγRIIIa was measured using Biacore®. The protein A capture format was used as described above, except that sensorgrams were obtained for a concentration series of receptor analyte in order to calculate an accurate affinity. […] Data were processed by zeroing time and response before the injection of receptor and by subtracting appropriate nonspecific signals (response of reference channel and injection of running buffer). The equilibrium constant was calculated by global fitting of binding data with a 1:1 Langmuir binding model using BIAevaluation software.
Similar binding experiments were carried out for the αHM1.24×αFcγRIIIa mAb-Fv. […] Data were processed by zeroing time and response before the injection of receptor and by subtracting appropriate nonspecific signals. The equilibrium constant was calculated by global fitting of binding data with a 1:1 Langmuir binding model using BIAevaluation software.

Binder | Kd (FcγRIIb [1]) [nM] | fold tighter than native IgG1 (FcγRIIb [2]) [fold] | binding result [3] | Kd (FcγRIIIa, V158 isoform [4]) [nM] | fold tighter than native IgG1 (FcγRIIIa, V158 isoform [5]) [fold]
B1 | 44 | ~52 |  |  | 
B2 |  |  | binds | 96 | ~2.9

From patent US20170058053A1 (Xencor, published 2017)
